Type in all cases: cell-based
One test addresses T1, GIP Receptor (Homo sapiens, UniProt P48546).
T1 construct: host or cells: HEK293T
T1 sequence (P48546 22-466): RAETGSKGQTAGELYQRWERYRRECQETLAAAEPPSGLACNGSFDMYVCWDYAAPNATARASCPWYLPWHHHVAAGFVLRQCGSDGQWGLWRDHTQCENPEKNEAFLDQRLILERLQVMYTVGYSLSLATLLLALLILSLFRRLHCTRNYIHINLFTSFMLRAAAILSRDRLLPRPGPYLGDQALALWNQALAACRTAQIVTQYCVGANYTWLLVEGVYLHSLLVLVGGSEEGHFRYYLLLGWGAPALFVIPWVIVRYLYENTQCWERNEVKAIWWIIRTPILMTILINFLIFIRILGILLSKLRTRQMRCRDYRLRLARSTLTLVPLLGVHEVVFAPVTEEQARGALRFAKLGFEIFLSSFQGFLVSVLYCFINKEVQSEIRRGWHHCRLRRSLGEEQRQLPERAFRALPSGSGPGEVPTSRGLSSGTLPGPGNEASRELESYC
The test can be described thus: GIP receptor-mediated bioluminescence in HEK293T cells with chimeric promiscuous G protein (FIG. 5, Table II). The conditions noted are these: for signal intensities, GIP dose response (FIG. 5) / Max signal with GIP (RLU × 10^−5) / EC50 / EC50 for GIP (nM): HEK293T cells; for signal intensities, GIP dose response (FIG. 5): GIP 10^−11 to 10^−6 M; for Max signal with GIP (RLU × 10^−5) / EC50 / EC50 for GIP (nM): GIP Receptor + promiscuous G protein; for EC50 / EC50 for GIP (nM): luminescence vs GIP concentration; for % GPCR/total: signal induced by maximal GIP (1 μM) as percentage of signal induced by Triton X-100 with 1 mM Ca^2+; for Signal: background with GIP: signal induced by maximal GIP (1 μM) divided by signal induced by buffer alone. How it is done: However, coexpression of GIP receptor with a chimeric G protein containing sequences from Gαs and Gαq enable the GIP receptor to stimulate calcium flux.
The results of the dose response curve to varying concentrations of GIP with a subset of the photoproteins are summarized in FIG. 5.
(§1) Signal to background ratio was calculated as the signal induced by maximal GIP (1 μM) divided by the signal induced by buffer alone. The EC50 value for calcium was determined as described above for FIG. 2 for mitochondrially targeted photoproteins transfected into HEK293T cells in the absence of a cotransfected GPCR or G protein. Affinity for calcium was correlated with the properties of the amino acid side chain at residue 168 of Clytin.
The EC50 value for receptor-mediated calcium flux induced by the ligand was determined by plotting luminescence (Y-axis) versus ligand concentration applied to the cells (X-axis), and applying a sigmoidal dose-response curve-fitting algorithm (GraphPad Prism). GPCR-mediated signals of the various modified forms of Clytin having an amino acid substitution at position 168 were also related to the nature of the side chain. In addition, the subcellular location of the photoproteins (cytosolic vs mitochondrial) appeared to have an effect on GPCR-mediated signals. […] All of the other mitochondrially targeted mutants except for Clytin K168R and wild-type Clytin yielded results that were in the range of those observed for wt-Aequorin.

Test [1] has as its target T2, H1 histamine receptor (Homo sapiens, UniProt P35367).
T2 construct: expressed in transfected cells; host or cells: U-2OS
The test can be described thus: GPCR-mediated versus total bioluminescence in U-2OS cells (FIG. 4). The conditions noted are these: 10 μM histamine vs Triton X-100 with 1 mM calcium. How it is done:
In another experiment, the ability of the various photoproteins to detect calcium flux in live cells was assessed by adding varying concentrations of histamine to cells in order to activate the H1 histamine receptor followed by measurement of bioluminescence of the various photoproteins. U-2OS cells were transfected with a cDNA encoding H1 histamine receptor along with a cDNA encoding either a wild-type photoprotein or a modified photoprotein according to the invention, as described above in Example 2, except that Lipofectamine-2000 (INVITROGEN) was used as the transfection reagent. On the second day, the cells were trypsinized, counted, and plated in a white tissue-culture treated 96-well plate (COSTAR) at a density of about 50,000 cells/well in growth media consisting of DMEM containing 10% fetal bovine serum, non-essential amino acids, HEPES and penicillin/streptomycin. On the third day, the medium was removed and cells were washed once with 200 μl/well of HBSS/HEPES (containing Ca^2+). Cells were subsequently incubated with 5 μM coelenterazine in HBSS/HEPES (containing Ca^2+) in a volume of 200 μl/well, for 3-4 hours at room temperature in the dark. After incubation, the coelenterazine solution was removed and cells were washed and replaced with HBSS/HEPES buffer containing both Ca^2+ and Mg^2+. 50 μl/well of histamine at varying concentrations in HBSS/HEPES containing both Ca^2+ and Mg^2+ was added to the cells and total bioluminescence was measured at 20 seconds using a Victor2 luminometer.
In an exemplary experiment, U-2OS cells were transfected, plated and loaded with coelenterazine as described in Example 3. Luminescence induced by buffer alone or by 10 μM histamine was measured also as described in Example 3. Additionally, luminescence induced by addition of Triton X-100 in the presence of 1 mM calcium was also determined in order to assess the total amount of active photoprotein detectable using saturating calcium concentrations in cells.

The nature of test [2]: Calcium affinity of mitochondrial photoproteins, transient co-transfection with H1 histamine receptor in HEK293T cells (FIG. 2). The conditions noted are these: HEK293T cells co-transfected with H1 histamine receptor; Triton X-100, free calcium 17 nM to 39.6 μM; total bioluminescence at 20 seconds; read-out: EC50 value (affinity for Ca^2+). From the text: (§2) Following the generation of modified forms of Clytin, the various variants were compared with wt-Aequorin for their affinity for intracellular calcium in transient transfection assays using co-transfection with the H1 histamine receptor (Genbank Accession No. NM_000861, obtained by PCR using H1-specific primers from a human brain cDNA library, forward primer 5′-[…] ATTCCTC-3′ (SEQ ID NO:60), reverse primer 5′-[…] AATTCTC-3′ (SEQ ID NO:61).
(§3) In an exemplary experiment, HEK293T cells (ATCC-CRL-11268) were transiently co-transfected with 2 μgs of each of pcDNA3.1-H1 (containing the cDNA encoding the H1 histamine receptor) and pcDNA3.1 containing the cDNAs encoding wild type mitochondrial Clytin (referred to as mt-Clytin), modified mitochondrial Clytin having a lysine to aspartic acid mutation at position 168 (referred to as mt-Clytin K168D), modified mitochondrial Clytin having a lysine to glutamic acid mutation at position 168 (referred to as mt-Clytin K168E), wild-type mitochondrial Obelin (referred to as mt-Obelin) or wild type mitochondrial Aequorin (referred to as mt-Aequorin) using the Targefect-293 reagent (TARGETING SYSTEMS). 48 hours later, the cells were detached using Accutase (MILLIPORE), centrifuged, and resuspended in […] in FreeStyle293 media (INVITROGEN), for incubation for 3-4 hours at room temperature in the dark. After incubation, the cells were centrifuged and resuspended in HBSS/HEPES buffer without Ca^2+ at a density of 1×10^6 cells/ml. Next, 100 μl/well of cell suspension for each transfection were added by the use of a Victor2 luminometer plate reader (WALLAC, […]), to a 96-well plate containing 50 μL/well Triton X-100 in MOPS/KCl buffer containing 10 mM EGTA and a series of Ca^2+ concentrations, such that free calcium concentrations ranged from 17 nM to 39.6 μM, followed by for measurement of total bioluminescence at 20 seconds.

Test [3] in a line: Calcium EC50 of mitochondrially targeted photoproteins in HEK293T cells without cotransfected GPCR or G protein (Table II). The conditions noted are these: no cotransfected GPCR or G protein.
Excerpt: as §3, §1

The target of test [4] is T2, H1 histamine receptor. The test can be described thus: H1 histamine receptor-mediated bioluminescence in U-2OS cells (FIG. 3). As to conditions: total bioluminescence at 20 seconds.
Excerpt: as §2
In another experiment, the ability of the various photoproteins to detect calcium flux in live cells was assessed by adding varying concentrations of histamine to cells in order to activate the H1 histamine receptor followed by measurement of bioluminescence of the various photoproteins. […] On the second day, the cells were trypsinized, counted, and plated in a white tissue-culture treated 96-well plate (COSTAR) at a density of about 50,000 cells/well in growth media consisting of DMEM containing 10% fetal bovine serum, non-essential amino acids, HEPES and penicillin/streptomycin. […] 50 μl/well of histamine at varying concentrations in HBSS/HEPES containing both Ca^2+ and Mg^2+ was added to the cells and total bioluminescence was measured at 20 seconds using a Victor2 luminometer.

Another test concerns the target T3, TRPA1 cation channel (Homo sapiens, UniProt O75762).
T3 construct: host or cells: HEK293
The test can be described thus: Ion channel-mediated bioluminescence in HEK293 cells stably expressing TRPA1, induced by AITC. The conditions noted are these: HEK293 cells stably expressing TRPA1, AITC 10^−6 to 10^−3.5 M.

The mark [5] stands for this setting: listed as cytosolic Clytin K168D.

Where a chain is given by its changes, count along the chain named. Numbers in names are those of the source.

T2 sequence (P35367 whole entry): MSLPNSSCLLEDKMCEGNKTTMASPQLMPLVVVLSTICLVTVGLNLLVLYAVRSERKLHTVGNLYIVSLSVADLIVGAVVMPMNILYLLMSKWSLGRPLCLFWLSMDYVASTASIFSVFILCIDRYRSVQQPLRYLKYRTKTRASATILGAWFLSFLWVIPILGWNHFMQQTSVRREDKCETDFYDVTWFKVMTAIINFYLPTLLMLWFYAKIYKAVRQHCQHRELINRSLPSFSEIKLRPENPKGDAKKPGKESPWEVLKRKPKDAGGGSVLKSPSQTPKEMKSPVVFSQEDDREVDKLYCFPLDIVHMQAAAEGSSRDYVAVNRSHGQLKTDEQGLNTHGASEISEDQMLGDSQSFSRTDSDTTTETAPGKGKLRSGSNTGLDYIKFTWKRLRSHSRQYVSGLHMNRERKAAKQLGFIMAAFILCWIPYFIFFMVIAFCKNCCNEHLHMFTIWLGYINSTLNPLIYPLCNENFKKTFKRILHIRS
T3 sequence (O75762 whole entry): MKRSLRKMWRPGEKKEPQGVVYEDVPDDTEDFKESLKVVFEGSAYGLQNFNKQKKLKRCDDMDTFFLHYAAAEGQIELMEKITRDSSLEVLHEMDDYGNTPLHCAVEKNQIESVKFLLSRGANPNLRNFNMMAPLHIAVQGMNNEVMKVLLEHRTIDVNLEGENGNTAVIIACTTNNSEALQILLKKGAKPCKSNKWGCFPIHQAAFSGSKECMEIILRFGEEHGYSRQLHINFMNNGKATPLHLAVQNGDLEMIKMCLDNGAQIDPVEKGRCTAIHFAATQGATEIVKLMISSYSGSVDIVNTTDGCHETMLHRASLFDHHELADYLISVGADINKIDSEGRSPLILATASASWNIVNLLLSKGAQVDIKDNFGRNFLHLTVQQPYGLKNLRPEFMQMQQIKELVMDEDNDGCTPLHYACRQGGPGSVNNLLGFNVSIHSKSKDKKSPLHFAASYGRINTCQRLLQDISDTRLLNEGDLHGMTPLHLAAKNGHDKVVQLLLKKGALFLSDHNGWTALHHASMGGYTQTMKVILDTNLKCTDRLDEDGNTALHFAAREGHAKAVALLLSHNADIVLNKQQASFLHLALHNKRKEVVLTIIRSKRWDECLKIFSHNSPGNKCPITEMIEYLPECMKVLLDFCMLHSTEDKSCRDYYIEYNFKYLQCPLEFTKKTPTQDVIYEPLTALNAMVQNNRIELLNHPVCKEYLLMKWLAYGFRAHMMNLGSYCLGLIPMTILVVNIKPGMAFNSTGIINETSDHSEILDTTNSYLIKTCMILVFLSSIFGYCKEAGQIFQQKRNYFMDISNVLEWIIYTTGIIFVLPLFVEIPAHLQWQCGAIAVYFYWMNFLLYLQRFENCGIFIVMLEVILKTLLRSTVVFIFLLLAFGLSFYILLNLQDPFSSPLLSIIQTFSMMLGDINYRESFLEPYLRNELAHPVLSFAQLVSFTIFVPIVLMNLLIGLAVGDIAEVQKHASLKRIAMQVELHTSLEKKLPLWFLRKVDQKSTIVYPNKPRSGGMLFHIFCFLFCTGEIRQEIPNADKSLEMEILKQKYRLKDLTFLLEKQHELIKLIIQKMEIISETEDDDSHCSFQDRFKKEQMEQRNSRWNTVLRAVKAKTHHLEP

B1: Mt-clytin K168D: Mitochondrial K168D modified Clytin, SEQ ID NO:10 (protein)
chain: MSVLTPLLLRGLTGSARRLPVPRAKIHSLPPEGKLRPNFDNPKWVNRHKFMFNFLDINGDGKITLDEIVSKASDDICAKLGATPEQTKRHQDAVEAFFKKIGMDYGKEVEFPAFVDGWKELANYDLKLWSQNKKSLIRDWGEAVFDIFDKDGSGSISLDEWKAYGRISGICSSDEDAEKTFKHCDLDNSGDLDVDEMTRQHLGFWYTLDPNADGLYGNFVP
Usually EC50 stands for the concentration needed to bring the measured effect to its halfway point. As to B1, in the test with GIP Receptor, the “signal intensities, GIP dose response (FIG. 5)” value is “significantly higher signal intensities than any of the wild-type photoproteins”; the “Max signal with GIP (RLU × 10^−5)” value amounted to 7.90 RLU × 10^−5; the EC50 worked out at 9.1 nM; the “EC50 for GIP (nM)” value is “lowest EC50”. In the test with GIP Receptor, the “% GPCR/total” value worked out at 34.4% and the “Signal: background with GIP” value is 188.2. In addition, in the test with GIP Receptor (listed as mt-Clytin K168D), the “Max signal with GIP (RLU × 10^−5)” value is given as “maximal signal”, the “% GPCR/total” value was “highest % GPCR/total” and the “Signal: background with GIP” value is recorded as “highest signal to background ratio”. Also, the “GPCR-mediated signal as % of the total signal” value (“GPCR-mediated signal as %” below) with H1 histamine receptor [1] is roughly 100%. Besides, in test [2], the EC50 stood at 129 nM. Besides, the EC50 in test [3] came to 160 nM.

B2: Mt-clytin wt: Mitochondrial Wild-type Clytin (mt-Clytin), SEQ ID NO:5, with COX8 mitochondrial leader sequence (protein, listed as Clytia gregaria)
chain: B1 chain with D191K
Take B2: in the test with GIP Receptor, the “Max signal with GIP (RLU × 10^−5)” value amounted to 3.14 RLU × 10^−5, the EC50 is 12.9 nM, the “% GPCR/total” value is 6.8% and the “Signal: background with GIP” value was 146.5. Also, the “GPCR-mediated signal as %” value in the test with H1 histamine receptor [1] was “about 30%”. For the same molecule, the EC50 in test [2] stood at 1350 nM. In addition, the 50% effective concentration (EC50) in test [3] worked out at 545 nM.

B3: Cyto-clytin K168D: K168D modified Clytin amino acid sequence, SEQ ID NO:9; cytosolic (protein)
chain: MADTASKYAVKLRPNFDNPKWVNRHKFMFNFLDINGDGKITLDEIVSKASDDICAKLGATPEQTKRHQDAVEAFFKKIGMDYGKEVEFPAFVDGWKELANYDLKLWSQNKKSLIRDWGEAVFDIFDKDGSGSISLDEWKAYGRISGICSSDEDAEKTFKHCDLDNSGDLDVDEMTRQHLGFWYTLDPNADGLYGNFVP
With B3, the “luminescence induced by histamine” value with H1 histamine receptor [4] was “much higher luminescence than the other forms of Clytin and Aequorin”. Moreover, in the test with GIP Receptor, the “signal intensities, GIP dose response (FIG. 5)” value is recorded as “significantly higher signal intensities than any of the wild-type photoproteins”; the “Max signal with GIP (RLU × 10^−5)” value came out at 8.76 RLU × 10^−5; the EC50 was 4.01 nM; the “EC50 for GIP (nM)” value is “lowest EC50”. In the test with GIP Receptor, the “% GPCR/total” value is 55.6% and the “Signal: background with GIP” value was 74.3. In the test with GIP Receptor (setting [5]), the “Max signal with GIP (RLU × 10^−5)” value is listed as “highest maximal signal”, the “% GPCR/total” value is “highest % GPCR/total” and the “Signal: background with GIP” value was “highest signal to background ratio”. The “GPCR-mediated signal as %” value with H1 histamine receptor [1] is reported as roughly 100%. Further, in the test with TRPA1 cation channel, the “EC50 (AITC dose response)” value is “lower EC50 than cytosolic wild-type Clytin”; the “signal (AITC-induced bioluminescence)” value was “higher signal than cytosolic and mitochondrial Aequorin”. Moreover, the EC50 in test [3] amounted to 160 nM.

B4: Mt-aequorin: Mitochondrial Wild-type Aequorin (mt-Aequorin), SEQ ID NO:6 (protein, listed as Aequorea victoria)
chain: MSVLTPLLLRGLTGSARRLPVPRAKIHSLPPEGKLTSDFDNPRWIGRHKHMFNFLDVNHNGKISLDEMVYKASDIVINNLGATPEQAKRHKDAVEAFFGGAGMKYGVETDWPAYIEGWKKLATDELEKYAKNEPTLIRIWGDALFDIVDKDQNGAITLDEWKAYTKAAGIIQSSEDCEETFRVCDIDESGQLDVDEMTRQHLGFWYTMDPACEKLYGGAVP
B4: in the test with GIP Receptor, the “Max signal with GIP (RLU × 10^−5)” value amounted to 4.68 RLU × 10^−5, the EC50 turned out to be 11.3 nM, the “% GPCR/total” value came out at 23.9% and the “Signal: background with GIP” value worked out at 84.7. In addition, in the test with H1 histamine receptor [1], the “GPCR-mediated signal as %” value is recorded as “about 70%”. The EC50 in test [2] came out at 269 nM. In addition, in test [3], the EC50 is 235 nM.

The values are drawn from patent US20110081661A1, “Modified photoproteins with increased affinity for calcium and enhanced bioluminescence and uses thereof” (Millipore Corporation, priority 2009, published 2011).
